Consider twelve molecules from article doi:10.1101/2021.12.26.474192 (bioRxiv, 2021).

For assay [1], the target named is T1, SARS-CoV-2 receptor-binding domain (RBD), S protein residues 319-539 (SARS-CoV-2, GenBank MN985325.1 …, UniProt P0DTC2). Briefly: cryo-EM structure.
Assay [2] concerns the target T2, BM-4831-CoV RBD, residues 310-530 (Bat coronavirus BM48-31/BGR/2008, strain). Briefly: ELISA. On the technique in general: ELISA stands for enzyme-linked immunosorbent assay.
Assay [3] has as its target T1, SARS-CoV-2 receptor-binding domain …. As to the kind of experiment: ELISA.
Assay [4] has as its target T3, SARS-CoV RBD, residues 318-510 (SARS-CoV (GenBank AAP13441.1), UniProt P59594). As to the kind of experiment: ELISA.
Assay [5] has as its target SARS-CoV-2 spike receptor-binding domain (RBD) used in the crystallographic study (SARS-CoV-2, UniProt P0DTC2). As to the kind of experiment: crystal structure.
Assay [6] concerns the target Rp3-CoV RBD, residues 322-504 (Bat coronavirus Rp3/2004, UniProt Q3I5J5). Briefly: ELISA.
Assay [7] has as its target HKU3-1-CoV RBD, residues 322-505 (Bat coronavirus HKU3, isolate HKU3-1, UniProt Q3LZX1, strain). As to the kind of experiment: ELISA.
Assay [8] concerns the target ZC45-CoV RBD, residues 327-509 (Bat SARS-like coronavirus ZC45, UniProt A0A2R3SUW7, strain). As to the kind of experiment: ELISA.
Assay [9] concerns the target Rs4081-CoV RBD, residues 310-515 (Bat SARS-like coronavirus Rs4081, UniProt A0A2D1PX44, strain). Briefly: ELISA.
In assay [10] the target is Rs4092-CoV RBD, residues 314-496 (Bat SARS-like coronavirus Rs4092, UniProt A0A2D1PX37, strain). Briefly: ELISA.
Assay [11] concerns the target RaTG13-CoV RBD, residues 319-541 (Bat coronavirus RaTG13, UniProt A0ABF7PLN6, strain). Briefly: ELISA.
Assay [12] has as its target YN2013-CoV RBD, residues 314-496 (BtRs-BetaCoV/YN2013, UniProt A0A0U1WJY8, strain). As to the kind of experiment: ELISA.
Assay [13] addresses Shaanxi2011-CoV RBD, residues 321-502 (Bat coronavirus Rp/Shaanxi2011, UniProt R9QTA0, strain). Briefly: ELISA.
In assay [14] the target is Rs7327-CoV RBD, residues 319-518 (Bat SARS-like coronavirus Rs7327, UniProt A0A2D1PXC0, strain). As to the kind of experiment: ELISA.
Assay [15] deals with W1V1-CoV RBD, residues 307-528 (Bat SARS-like coronavirus WIV1 (printed …, UniProt U5WI05)). As to the kind of experiment: ELISA.
In assay [16] the target is Yun11-CoV RBD, residues 310-515 (Bat coronavirus Cp/Yunnan2011, UniProt R9QTH3). Briefly: ELISA.
The target in assay [17] is Rf1-CoV RBD, residues 310-515 (Bat SARS CoV Rf1/2004, UniProt Q0QDZ0, strain). Briefly: ELISA.
In assay [18] the target is SHC014-CoV RBD, residues 307-524 (Bat SARS-like coronavirus RsSHC014, UniProt U5WLK5, strain). Briefly: ELISA.
Assay [19] deals with pangolin17-CoV RBD, residues 317-539 (Pangolin coronavirus (pangolin17), strain). Briefly: ELISA.
Assay [20] has as its target BtkY72-CoV RBD, residues 309-530 (Bat sarbecovirus BtKY72, UniProt A0A3Q8AKM0). As to the kind of experiment: ELISA.
Assay [21] has as its target T2, BM-4831-CoV RBD, residues 310-530. Briefly: SPR.
The target of assay [22] is T3, SARS-CoV RBD, residues 318-510. Briefly: SPR. (In general: Surface plasmon resonance follows binding to a sensor surface in real time, without labels.)
Assay [23] addresses T1, SARS-CoV-2 receptor-binding domain …. As to the kind of experiment: SPR.

B1: psNb 2-10 (VHH)
VHH: QVQLVESGGGLVQPGGSLRLSCAASGFTFNRYAMSWVRQAPGKGREWVSGIYSDGSETYYTESVKGRFTISRDNAKNMLYLQMNSLKPEDTALYYCAKDENAHEDYFNSGFDRKYDYWGQGTQVTVSS
In the case of B1, the binding result in [1] is given as “binds”.

B2: psNb 2-65 (VHH)
VHH: HVQLVESGGGLVQAGGSLRLSCAASGTISTLNAMGWYRQAPGKQRELLASISNLGTTYHADSVAGRFTISRGSAKNTVNLQMNSLKPDDTAVYYCNTRVLEGGTQIRDYWGQGTQVTVSS
With B2, the binding result in [2] and in [3] was “binds” each time.

B3: psNb 2-38 (VHH)
VHH: QVQLVESGGGLVQAGGSLRLSCAAAARFSTSAMGWFRQAPGKEREFVAAISWSNTNTHYADTVKGRFTISADTAKETVDLQMNSLKPEDTAVYYCVQGGWGIRQPIIVDYWGKGTQVTVSS
With B3, the binding result in assay [2], in assay [4] and in [3] was “binds” each time.

B4: psNb 1-25 (VHH)
VHH: HVQLVESGGGLVQAGGSLRLSCATSGRTFSTYRMSWFRQAPGKEREFVATIIWSVGSTHYADSVKGRFTISRDNAKNMVYLQMNSLKPEDTAVYYCAAQRSDSSSWGYEDDYDYWGQGTQVTVSS
Regarding B4, the binding result in [1] is “binds”.

B5: psNb 1-22 (VHH)
VHH: HVQLVESGGGLVQPGGSLRLSCAASGRSFNSYLMGWFRQAPGKEREFVAWISGSPHDIIRYRDSVKDRFTISRDNAKNTVYLQMNSLKPVDTAVYYCAVGSLRVGSFSPDYWGQGTQVTVSS
As to B5, the binding result in assay [2], in [4] and in [3] was “binds” in each case.

B6: psNb 1-21 (VHH)
VHH: HVQLVESGGGLVQAGGSLRLSCAAPGRTFSTSAMGWFRQAPGKEREFVAAIDWSNTNIHYADTVKGRFTISTDTAKNTVYLQMNNLKPEDTAVYYCAQGGWGLTQPISVDYWGKGTQVTVSS
B6: the binding result in [4], in [3] and in [5] was “binds” throughout.

B7: psNb 2-45 (VHH)
VHH: QVQLVESGGGLVQAGGSLRLSCTASGYDFSILAIAWYRQAPGKERELVAAISRVGSTDYADSVKGRFTISRDNTKNTVSLQMDSLKPEDTAVYYCNAGIPMTTVLSGLGFWGQGTQVTVSS
Take B7: the binding result in assay [6], in assay [7], in assay [8], in assay [9], in assay [10] and in [11] was “binds” throughout. Besides, the binding result in assay [12], in assay [13], in assay [14], in assay [15], in assay [16] and in [17] was “binds” each time. The binding result in [18], in [19] and in [20] was “binds” each time. Further, the Kd in assay [21] came to 0.044 nM; in assay [22], 304 nM; in assay [23], 0.39 nM.

B8: psNb 2-34 (VHH)
VHH: HVQLVESGGGLVQAGGSLRLSCAASGRTFSRYAAGWFRQAPGKEREFVAVIEWDGDSAYYADPVKGRFTISRDNAKNTVYLQMNRLKPEDTAVYICAVGGNHYSRSKYYNLDEYDDWGQGTQVTVSS
Regarding B8, the binding result in assay [6], in [7], in assay [8], in [2], in assay [4] and in [9] was “binds” throughout. For the same molecule, the binding result in [10], in assay [11], in assay [12], in assay [13], in assay [3] and in assay [14] was “binds” each time. Moreover, the binding result in assay [15], in assay [16], in assay [17], in assay [18], in assay [19] and in [20] was “binds” each time.

B9: psNb 2-67 (VHH)
VHH: EVQLVESGGGLVQTGGSLRLSCALSGYTFSIFPTAWFRQAPGKEREFVAGIRWNGSTRDYTEYADFVKGRFTISRDNAKNMVYLQMISLKPEDTALYYCAASDGVIDGTNANAYRYWGQGTQVTVSS
As to B9, the binding result in [1] is given as “binds”.

B10: psNb 1-23 (VHH)
VHH: QVQLVESGGGLVQAGGSLRLSCAASGRTDSISDMGWFRQAPGKEREFVAVVGWSGGGTDYAHSVKGRFTISRDNAKNTVYLQMNSLKPEDTAVYYCAVGSLRVGSFSVEYWGQGTQVTVSS
On to B10, for which the binding result in assay [2], in assay [4] and in assay [3] was “binds” each time.

B11: psNb 2-31 (VHH)
VHH: QVQLVESGGGLVQAGESLRLSCAASKPTFRNFAAGWFRQTPGKDREFVAVIEYDGDSAYYADSVKGRFTISRDNAKNTVYLQMNRLKPGDTAVYICAIGGNHYDPSKYYTADEYDYWGQGTQVTVSS
Regarding B11, the binding result in assay [6], in [7], in assay [8], in assay [9], in [10] and in assay [11] was “binds” in each case. Moreover, the binding result in [12], in [13], in assay [14], in assay [15], in assay [16] and in assay [17] was “binds” each time. Moreover, the binding result in assay [18], in assay [19] and in assay [20] was “binds” throughout. Besides, the Kd was 3.6 nM in assay [21], 0.00396 nM in assay [22] and less than 0.001 nM in [23].

B12: psNb 2-62 (VHH)
VHH: QVQLVESGGGLVQAGGSLRLSCAASGRTFSTYAMAWFRQAPGKEREFVAGVARSADTTYYGDSVKGRFTISRDNAKNEVNLQMSSLKPEDTAVYYCAARSVIQYGIVPGNDFHYEYWGQGTQVTVSS
Take B12: the binding result in assay [1] is “binds”.

One may read the Kd as the concentration at which binding is half-saturated. Read a high Kd as a looser complex.
